Laboratory results published in patent publication US20100137420A1 (Johns Hopkins, published 2010).

Target: T1, protein A beads (UniProt P38507 37-477)
T1 construct: Used alone as a control in the immunodepletion; also called protein A beads alone
Test: CSF incubated with protein A beads alone, SELDI-TOF read-out
Method: 20 μl of rabbit anti-human cystatin C or rabbit anti-fusin antisera (DakoCytomation, Carpinteria, Calif.) was bound to 10 μl of protein A beads equilibrated in PBS, pH 7.4, by rocking at room temperature for 1 hr. 10 μl of equilibrated protein A beads alone were used as another control. Each sample was washed three times with PBS pH=7.4. […] 30 μl of this CSF was added to each of the above sample and rocked for 1 hr at room temperature. 15 μl of the supernatant was applied to CM-10 arrays and analyzed as described above.

B1: full-length cystatin C (13.4 kD peak) in human cerebrospinal fluid (other)
chain: SSPGKPPRLVGGPMDASVEEEGVRRALDFAVGEYNKASNDMYHSRALQVVRARKQIVAGVNYFLDVELGRTTCTKTQPNLDNCPFHDQPHLKRKAFCSFQIYAVPWQGTMTLSKSTCQDA
notes: also called biomarker J
B1: no binding.

B2: C-terminal cleavage product of cystatin C lacking the last 8 amino acids (12.5 kD peak) in human cerebrospinal fluid (other)
chain: SSPGKPPRLVGGPMDASVEEEGVRRALDFAVGEYNKASNDMYHSRALQVVRARKQIVAGVNYFLDVELGRTTCTKTQPNLDNCPFHDQPHLKRKAFCSFQIYAVPWQGTMTL
notes: Endogenous fragment in CSF of MS/CIS patients; also called biomarker A
B2: no binding.
